Measured values from patent EP4703380A1, “INTEGRIN-TARGETING ANTIBODIES AND USE THEREOF” (NIO BIOPHARMACEUTICALS. INC., priority 2023, dated 2024).
One block for each binder: values may come before it.

Assays:
[1] = target: recombinant human VLA-3 protein (ITGA3/ITGB1 heterodimer) (human, UniProt P05556 21-728); assay: ELISA, coated VLA-3 (0.125-1.5 nM), antibody 1 µg/mL
[2] = target: VLA-3 (ITGA3/ITGB1) on the cell membrane; assay: cell-based or functional assay
[3] = target: recombinant human VLA-3 protein (ITGA3/ITGB1 heterodimer) (human) (UniProt P05556); assay: BLI (Octet Red), antibody on AHC sensor, 50 nM VLA-3 with 2 mM Ca2+
[4] = target: recombinant human VLA-3 protein (ITGA3/ITGB1 heterodimer) (human) (UniProt P05556); assay: BLI (Octet Red), antibody on AHC sensor, 50 nM VLA-3 with 2 mM EDTA
[5] = target: recombinant human VLA-3 protein (ITGA3/ITGB1 heterodimer) (human) (UniProt P05556); assay: ELISA, coated VLA-3 (0.125-1.5 nM), antibody 1 µg/mL
[6] = target: recombinant human VLA-3 protein (ITGA3/ITGB1 heterodimer) (human) (UniProt P05556); assay: BLI (Octet Red), antibody on AHC sensor, VLA-3 as analyte, no additive, 0 mM EDTA in the running buffer
[7] = target: recombinant human VLA-3 protein (ITGA3/ITGB1 heterodimer) (human) (UniProt P05556); assay: BLI (Octet Red), antibody on AHC sensor, 50 nM VLA-3 with 2 mM Mn2+
[8] = target: recombinant human VLA-3 protein (ITGA3/ITGB1 heterodimer) (human) (UniProt P05556); assay: SPR (Biacore T200), PS4-002 immobilised on CM5, VLA-3 as analyte, HBS-EP running buffer with 3 mM EDTA
[9] = target: recombinant human VLA-3 protein (ITGA3/ITGB1 heterodimer) (human) (UniProt P05556); assay: BLI (Octet Red), antibody on AHC sensor, 50 nM VLA-3 with 2 mM Mg2+

Chain of recombinant human VLA-3 protein (ITGA3/ITGB1 heterodimer) (human) (P05556 21-728, one chain of several): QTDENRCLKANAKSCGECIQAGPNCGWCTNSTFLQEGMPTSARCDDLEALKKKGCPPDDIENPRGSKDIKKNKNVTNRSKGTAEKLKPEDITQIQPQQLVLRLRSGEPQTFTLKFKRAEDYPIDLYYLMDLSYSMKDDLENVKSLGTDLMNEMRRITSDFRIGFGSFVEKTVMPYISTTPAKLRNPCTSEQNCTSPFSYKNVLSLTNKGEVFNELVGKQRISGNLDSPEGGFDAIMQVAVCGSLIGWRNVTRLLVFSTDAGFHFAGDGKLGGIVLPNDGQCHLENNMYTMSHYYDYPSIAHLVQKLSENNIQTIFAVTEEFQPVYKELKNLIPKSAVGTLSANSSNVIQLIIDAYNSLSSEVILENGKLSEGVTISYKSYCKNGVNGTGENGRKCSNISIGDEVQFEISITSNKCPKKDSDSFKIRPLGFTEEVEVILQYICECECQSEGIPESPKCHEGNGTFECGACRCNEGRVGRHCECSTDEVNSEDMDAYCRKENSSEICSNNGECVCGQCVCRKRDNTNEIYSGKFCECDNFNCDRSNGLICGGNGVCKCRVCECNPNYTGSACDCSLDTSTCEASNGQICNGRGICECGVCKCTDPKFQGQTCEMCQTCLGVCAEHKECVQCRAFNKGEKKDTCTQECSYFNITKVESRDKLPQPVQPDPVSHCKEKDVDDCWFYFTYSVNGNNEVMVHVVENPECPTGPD
Chain of recombinant human VLA-3 protein (ITGA3/ITGB1 heterodimer) (P05556 21-728, one chain of several): as above

EC50 [1]: ~1 nM
B1: PS4 maxibody variant 2 (Linker-C variant) (Fc fusion)
scFv: QVQLVQSGGGLVNPGGSLRLSCAASGFPFSDHYMSWIRQAPGKGLEWVSYISNRGYTIHYADFVKGRFTISRDNAENTLYLQMNSLRAEDTAVYYCARDRGTIDAFDLWGQGTMVTVSSGGGGGSGGGSCGGGGSQSALTQPASVSGSPGQSITIPCSGTSDDIGRYNYVSWYQQHPGKAPKLLIYDVTRRSSGVSSHFSGSKSGSTASLIISGLQADDEADYFCSSFTNNRTVVFGGGTKLTVLG
notes: also called Mutant 2; L-C; not shown: Fc domain of human IgG1

IC50 (nM), cell growth inhibition (AlamarBlue), A549 cells [2]: 5.22 nM
IC50 (nM), cell growth inhibition (AlamarBlue), BT20 cells [2]: 134 nM
IC50 (nM), cell growth inhibition (AlamarBlue), CoCaB1 cells [2]: 2.21 nM
IC50 (nM), cell growth inhibition (AlamarBlue), MDA-MB-231 cells [2]: 0.77 nM
IC50 (nM), cell growth inhibition (AlamarBlue), MDA-MB-453 cells (first row) [2]: 9.79 nM
IC50 (nM), cell growth inhibition (AlamarBlue), MDA-MB-453 cells (second row) [2]: 18.8 nM
IC50 (nM), cell growth inhibition (AlamarBlue), MKN45 cells [2]: 14.1 nM
IC50 (nM), cell growth inhibition (AlamarBlue), Panc-1 cells [2]: 2.7 nM
IC50 (nM), cell growth inhibition (AlamarBlue), SCaBER cells [2]: 1.88 nM
IC50 (nM), cell growth inhibition (AlamarBlue), SW780 cells [2]: 1.78 nM
IC50 (nM), cell growth inhibition (AlamarBlue), UMUC-3 cells [2]: 2.1 nM
Maximum (% inhibition), cell growth inhibition (AlamarBlue), A549 cells [2]: 77.3%
Maximum (% inhibition), cell growth inhibition (AlamarBlue), Aspc-1 cells [2]: 51.8%
Maximum (% inhibition), cell growth inhibition (AlamarBlue), BT20 cells [2]: 79.6%
Maximum (% inhibition), cell growth inhibition (AlamarBlue), CoCaB1 cells [2]: 95.5%
Maximum (% inhibition), cell growth inhibition (AlamarBlue), MDA-MB-231 cells [2]: 78%
Maximum (% inhibition), cell growth inhibition (AlamarBlue), MDA-MB-453 cells (first row) [2]: 96.2%
Maximum (% inhibition), cell growth inhibition (AlamarBlue), MDA-MB-453 cells (second row) [2]: 87.9%
Maximum (% inhibition), cell growth inhibition (AlamarBlue), MDA-MB-468 cells [2]: 89.9%
Maximum (% inhibition), cell growth inhibition (AlamarBlue), MKN45 cells [2]: 55.6%
Maximum (% inhibition), cell growth inhibition (AlamarBlue), Panc-1 cells [2]: 73.8%
Maximum (% inhibition), cell growth inhibition (AlamarBlue), SCaBER cells [2]: 89.7%
Maximum (% inhibition), cell growth inhibition (AlamarBlue), SW780 cells [2]: 90.4%
Maximum (% inhibition), cell growth inhibition (AlamarBlue), UMUC-3 cells [2]: 90.8%
B2: PS4-002-vcMMAE (PS4 maxibody-vcMMAE conjugate, WT) (Fc fusion, part only; not given: scFv linker, hinge-Fc and drug, not shown: another chain or arm of the molecule; a dimerising Fc or GST; small tags and cut ends)
VH: QVQLVQSGGGLVNPGGSLRLSCAASGFPFSDHYMSWIRQAPGKGLEWVSYISNRGYTIHYADFVKGRFTISRDNAENTLYLQMNSLRAEDTAVYYCARDRGTIDAFDLWGQGTMVTVSS
VL: QSALTQPASVSGSPGQSITIPCSGTSDDIGRYNYVSWYQQHPGKAPKLLIYDVTRRSSGVSSHFSGSKSGSTASLIISGLQADDEADYFCSSFTNNRTVVFGGGTKLTVL
modifications: vcMMAE conjugated to cysteines after partial reduction with TCEP; average DAR 4.09; sites not stated, presumabl [CUT]

Kd [3]: 6.46 nM
koff [3]: 0.000209 s⁻¹
kon [3]: 32400 M⁻¹ s⁻¹
Kd [4]: 2170 nM
koff [4]: 0.00397 s⁻¹
kon [4]: 1830 M⁻¹ s⁻¹
EC50 [5]: 1 nM
Kd [6]: 2.15 nM
koff [6]: 5.9e-05 s⁻¹
kon [6]: 32500 M⁻¹ s⁻¹
Kd [7]: 0.23 nM
koff [7]: 8.46e-06 s⁻¹
kon [7]: 36500 M⁻¹ s⁻¹
Kd [8]: 216 nM
koff [8]: 0.0045 s⁻¹
kon [8]: 20900 M⁻¹ s⁻¹
Kd [9]: 0.85 nM
koff [9]: 3.78e-05 s⁻¹
kon [9]: 44600 M⁻¹ s⁻¹
B3: PS4-002 maxibody (scFv-human IgG1 Fc), wild type (Fc fusion, part only; not given: scFv linker and IgG1 hinge-Fc, not shown: another chain or arm of the molecule; a dimerising Fc or GST; small tags and cut ends)
VH: QVQLVQSGGGLVNPGGSLRLSCAASGFPFSDHYMSWIRQAPGKGLEWVSYISNRGYTIHYADFVKGRFTISRDNAENTLYLQMNSLRAEDTAVYYCARDRGTIDAFDLWGQGTMVTVSS
VL: QSALTQPASVSGSPGQSITIPCSGTSDDIGRYNYVSWYQQHPGKAPKLLIYDVTRRSSGVSSHFSGSKSGSTASLIISGLQADDEADYFCSSFTNNRTVVFGGGTKLTVL
